This assay addresses LOV construct of Brucella abortus LOV-HK with the Nα helix, the LOV core and half of the Jα helix (wild type) (Brucella abortus). In words: SEC with static light scattering (SEC-SLS).

With “LOV construct of Brucella abortus LOV-HK with the Nα helix, the LOV core and half of the Jα helix (wild type) (domain or fragment)”, the stoichiometry N (commonly a count of units in the complex or per binding partner) was determined as 2.
